Test results: publication PMC8648671

Columns and labels:
[1] = molecular target: βPix-SH3 mutant-Myc (W43K)

B1: Dyn2-GFP (natural protein)
chain: MGNRGMEELIPLVNKLQDAFSSIGQSCHLDLPQIAVVGGQSAGKSSVLENFVGRDFLPRGSGIVTRRPLILQLIFSKTEYAEFLHCKSKKFTDFDEVRQEIEAETDRVTGTNKGISPVPINLRVYSPHVLNLTLIDLPGITKVPVGDQPPDIEYQIKDMILQFISRESSLILAVTPANMDLANSDALKLAKEVDPQGLRTIGVITKLDLMDEGTDARDVLENKLLPLRRGYIGVVNRSQKDIEGRKDIRAALAAERKFFLSHPAYRHMADRMGTPHLQKTLNQQLTNHIRESLPTLRSKLQSQLLSLEKEVEEYKNFRPDDPTRKTKALLQMVQQFGVDFEKRIEGSGDQVDTLELSGGARINRIFHERFPFELVKMEFDEKDLRREISYAIKNIHGVRTGLFTPDLAFEAIVKKQVVKLKEPCLKCVDLVIQELISTVRQCTSKLSSYPRLREETERIVTTYIREREGRTKDQILLLIDIEQSYINTNHEDFIGFANAQQRSTQLNKKRAIPNQGEILVIRRGWLTINNISLMKGGSKEYWFVLTAESLSWYKDEEEKEKKYMLPLDNLKIRDVEKGFMSNKHVFAIFNTEQRNVYKDLRQIELACDSQEDVDSWKASFLRAGVYPEKDQAENEDGAQENTFSMDPQLERQVETIRNLVDSYVAIINKSIRDLMPKTIMHLMINNTKAFIHHELLAYLYSSADQSSLMEESAEQAQRRDDMLRMYHALKEALNIIGDISTSTVSTPVPPPVDDTWLQNTSSHSPTPQRRPVSSVHPPGRPPAVRGPTPGPPLIPMPVGATSSFSAPPIPSRPGPQNVFANNDPFSAPPQIPSRPARIPPGIPPGVPSRRAPAAPSRPTIIRPAEPSLLD
In the case of B1, the Rac1 activity (Rac1-GTP by GST-PBD pull-down, against total Rac1) in HEK293T cells transfected with Flag-βPix and Dyn2-GFP, relative to non-transfected cells (Flag-βPix) is reported as 3 fold and the Rac1 activity (Rac1-GTP by GST-PBD pull-down) in HEK293T cells transfected with the Flag-tagged SH3 mutant of βPix and Dyn2-GFP [1] is reported as 50%.
